Measured values from article PMC3988464.
Like-named read-outs stand apart in the source and are kept apart here.

Key:
Wild type CXCL8 (human) [1] = molecular target: Wild type CXCL8 (human)
CXCR2 (Homo sapiens) = CXCR2 (Homo sapiens) (UniProt P25025); conditions: cited from earlier work
[2] = molecular target: Isolated Link module of human TSG-6 (Link_TSG6) (human) (UniProt P98066); test: SPR
[3] = molecular target: Isolated Link module of human TSG-6 (Link_TSG6) (human) (UniProt P98066); test: SPR; remark: listed apart in the source
CXCL8 (Homo sapiens) = CXCL8 (Homo sapiens) (UniProt P10145); conditions: cited from earlier work
Wild type CXCL8 (human) [4] = test: SPR
Wild type CXCL8 (human) [5] = test: SPR; remark: listed apart in the source

Isolated Link module of human TSG-6 (Link_TSG6) (human), sequence (P98066 36-129): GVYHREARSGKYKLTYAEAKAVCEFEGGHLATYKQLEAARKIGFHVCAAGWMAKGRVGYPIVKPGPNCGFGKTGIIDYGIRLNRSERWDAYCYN
Full-length, wild type recombinant human TSG-6, sequence (P98066 18-277): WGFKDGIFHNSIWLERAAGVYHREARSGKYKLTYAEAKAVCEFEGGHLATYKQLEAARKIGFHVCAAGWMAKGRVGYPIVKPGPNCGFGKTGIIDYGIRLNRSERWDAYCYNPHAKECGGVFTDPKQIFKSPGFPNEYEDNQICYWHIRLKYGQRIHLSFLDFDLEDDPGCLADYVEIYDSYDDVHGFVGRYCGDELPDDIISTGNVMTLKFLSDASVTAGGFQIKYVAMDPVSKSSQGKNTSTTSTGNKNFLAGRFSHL
CXCL8 (Homo sapiens), sequence (P10145 28-99): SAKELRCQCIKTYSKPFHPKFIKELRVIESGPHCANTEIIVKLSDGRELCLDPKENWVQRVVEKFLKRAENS
CXCL8, sequence (P10145 28-99): as above
Isolated Link module of human TSG-6 (Link_TSG6), sequence (P98066 36-129): as the sequence (P98066 36-129) above
CXCR2 (Homo sapiens), sequence (P25025 whole entry): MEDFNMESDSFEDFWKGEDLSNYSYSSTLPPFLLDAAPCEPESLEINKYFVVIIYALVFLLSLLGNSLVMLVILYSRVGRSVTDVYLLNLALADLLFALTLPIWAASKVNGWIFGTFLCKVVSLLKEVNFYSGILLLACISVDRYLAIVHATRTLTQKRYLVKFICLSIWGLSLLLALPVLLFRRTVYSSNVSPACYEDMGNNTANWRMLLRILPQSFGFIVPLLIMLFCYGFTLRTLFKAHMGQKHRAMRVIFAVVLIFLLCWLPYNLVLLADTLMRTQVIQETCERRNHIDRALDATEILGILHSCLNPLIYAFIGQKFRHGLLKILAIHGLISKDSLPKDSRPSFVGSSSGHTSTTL
Evasin-3, sequence (P0C8E8 21-86): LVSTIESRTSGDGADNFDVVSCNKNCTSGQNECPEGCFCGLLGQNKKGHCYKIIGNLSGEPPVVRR

Which inhibition of CXCL8-induced neutrophil trans-migration (Transwell) (Wild type CXCL8 (human) [1]) does the source give for “Isolated Link module of human TSG-6 (Link_TSG6) (from UniProt P98066 36-129) (domain or fragment)” here?
The inhibition of CXCL8-induced neutrophil trans-migration (Transwell) was 10 nM.

For CXCL8 (from UniProt P10145), which Kd (CXCR2 (Homo sapiens)) is on record?
Its Kd is 1 nM.

What does the source list for Wild type CXCL8 (ligand)?
Kd [2]: 21 nM; koff [2]: 0.0011 s⁻¹; Kd [3]: 6 nM; koff [3]: 0.00032 s⁻¹

For Evasin-3 (from UniProt P0C8E8), which Kd (CXCL8 (Homo sapiens)) is on record?
Its Kd is 1 nM.

Which Kd (Wild type CXCL8 (human) [4]) does the source give for “Full-length, wild type recombinant human TSG-6 (from UniProt P98066 18-277) (natural protein)” here?
The Kd was 20 nM.

And the Kd (Wild type CXCL8 (human) [5])?
Its Kd is 74 nM.
